Four sequences from publication PMC4606517 can be followed below.

The target in series [1] is hAgo2 (single-molecule) (Homo sapiens) (UniProt Q9UKV8). Briefly: single-molecule FRET. The conditions noted are these: 5'-phosphate on guide, C6-amino-U in guide (nt 9) and in target (opposite guide nt 17), Filter binding: 30 mM Tris pH 8.0, 0.1 M K acetate, 2 mM Mg acetate, 0.5 mM TCEP, 0.005% NP-40, 0.01 mg/ml yeast tRNA, room temp, 45 min, 0.1 nM target ….
The target in series [2] is Ago2 wild type (Homo sapiens) (UniProt Q9UKV8). Briefly: filter binding. The conditions noted are these: 5'-phosphate on guide; target nt 9 (N) = inosine; Filter binding: 30 mM Tris pH 8.0, 0.1 M K acetate, 2 mM Mg acetate, 0.5 mM TCEP, 0.005% NP-40, 0.01 mg/ml yeast tRNA, room temp, 45 min, 0.1 nM target ….

pKd: −log10 of the molar value.

Broadly, the pKd is the negative decadic logarithm of the Kd, by convention in mol/L. A lower pKd goes with a large Kd.

Chain of hAgo2 (single-molecule) (Homo sapiens) (Q9UKV8 whole entry): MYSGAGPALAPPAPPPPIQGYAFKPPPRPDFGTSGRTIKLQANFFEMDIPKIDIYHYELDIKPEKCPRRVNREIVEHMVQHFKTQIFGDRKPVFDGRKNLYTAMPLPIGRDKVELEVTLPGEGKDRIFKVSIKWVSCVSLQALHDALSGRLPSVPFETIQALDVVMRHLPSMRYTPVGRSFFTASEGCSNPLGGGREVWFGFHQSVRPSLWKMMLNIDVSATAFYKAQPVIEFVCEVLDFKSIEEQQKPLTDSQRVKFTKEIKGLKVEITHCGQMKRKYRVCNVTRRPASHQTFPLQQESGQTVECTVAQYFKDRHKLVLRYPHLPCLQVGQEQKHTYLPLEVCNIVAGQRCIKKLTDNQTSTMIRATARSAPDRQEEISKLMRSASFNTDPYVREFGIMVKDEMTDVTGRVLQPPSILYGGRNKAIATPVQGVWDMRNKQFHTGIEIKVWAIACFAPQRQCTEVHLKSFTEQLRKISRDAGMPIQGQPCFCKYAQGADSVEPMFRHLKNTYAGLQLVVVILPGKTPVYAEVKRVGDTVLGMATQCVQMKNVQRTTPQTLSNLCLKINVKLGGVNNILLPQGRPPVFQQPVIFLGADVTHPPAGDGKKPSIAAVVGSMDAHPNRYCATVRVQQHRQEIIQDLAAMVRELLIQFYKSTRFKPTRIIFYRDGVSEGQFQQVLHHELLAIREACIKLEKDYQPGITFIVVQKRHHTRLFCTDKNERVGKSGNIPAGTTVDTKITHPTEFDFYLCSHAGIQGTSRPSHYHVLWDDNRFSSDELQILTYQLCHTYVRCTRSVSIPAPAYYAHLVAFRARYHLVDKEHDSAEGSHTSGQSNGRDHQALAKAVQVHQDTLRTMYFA
Chain of Ago2 wild type (Homo sapiens) (Q9UKV8 whole entry): as above

In series [1] (long dwell time (50.2%), short 1.61 ± 0.29 s (49.8%)), “UGAGGUAUUUUUUUUUUUUUUU / UUUUUUUUUUUUUUUUUUUUUUUUUUUUUUUACUACCUCAUUUUUUUUUUUUUUUUUUUUUUUUUUUUU [smFRET guide + t1A target]” returned a binding signal of 8.69 s. “UGAGGUAUUUUUUUUUUUUUUU / UUUUUUUUUUUUUUUUUUUUUUUUUUUUUUUACUACCUCAUUUUUUUUUUUUUUUUUUUUUUUUUUUUU [smFRET guide + t1DAP target]” had a binding signal in series [1] (long dwell time (55.4%), short 1.97 ± 0.24 s (44.6%), target nt 40 = 2,6-diaminopurine (written A)) of 12.9 s. The sequence “UGAGGUAUUUUUUUUUUUUUUU / UUUUUUUUUUUUUUUUUUUUUUUUUUUUUUUACUACCUCUUUUUUUUUUUUUUUUUUUUUUUUUUUUUU [smFRET guide + t1U target]” gave a binding signal in series [1] (dwell time, single exponential) of 1.64 s. The sequence “UUCACAUUGCCCAAGUCUCUU / CAAUGUGANAA [guide + t1I target]” showed a pKd in series [2] of 8.77.
